# Key:
# [1] = target: Group III chaperonin from Carboxydothermus hydrogenoformans (Ch-CPN), wild type (Carboxydothermus hydrogenoformans) (UniProt Q3AF10); assay: crystal structure; Ch-CPN with 3 mM AMPPNP, closed conformation; batch crystallisation at 22 °C, 20 mM MgCl2, 100 mM HEPES:NaOH pH 7.5; 3.0 Å
# [2] = target: Ch-CPN L439A pivot joint mutant (Carboxydothermus hydrogenoformans) (UniProt Q3AF10); assay: not stated; L439A subunits purified as hexadecameric chaperonins (Supplementary Fig. 12b)
# Ch-CPN [3] = target: T1, Ch-CPN (Carboxydothermus hydrogenoformans, UniProt Q3AF10); assay: X-ray crystal structure, […] Å; format: binding; settings: open conformation; nucleotide site of equatorial domain; no Mg2+ seen; 3 mM ADP, pH 7.0
# T1 construct: gene CHY_0413; full-length wild type, 521 residues; recombinant from E. coli BL21(DE3), no tag mentioned; homo-hexadecamer of two octameric rings; residues 10-502 (5X9V) and 9-502 (5X9U) modelled
# T1 sequence (Q3AF10 1-521): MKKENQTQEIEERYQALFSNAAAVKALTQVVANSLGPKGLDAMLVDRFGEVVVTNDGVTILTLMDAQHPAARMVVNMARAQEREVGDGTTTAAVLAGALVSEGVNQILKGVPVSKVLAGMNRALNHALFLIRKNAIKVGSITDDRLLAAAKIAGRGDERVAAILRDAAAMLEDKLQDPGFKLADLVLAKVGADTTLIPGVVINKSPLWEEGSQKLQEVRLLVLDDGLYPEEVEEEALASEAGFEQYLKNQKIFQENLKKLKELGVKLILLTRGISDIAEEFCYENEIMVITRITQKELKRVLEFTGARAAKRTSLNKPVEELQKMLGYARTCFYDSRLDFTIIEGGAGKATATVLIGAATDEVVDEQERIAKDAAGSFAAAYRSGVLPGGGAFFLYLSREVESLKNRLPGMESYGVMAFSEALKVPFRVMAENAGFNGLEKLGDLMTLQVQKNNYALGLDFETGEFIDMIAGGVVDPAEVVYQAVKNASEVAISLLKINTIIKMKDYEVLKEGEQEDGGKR
# Ch-CPN [4] = target: T1, Ch-CPN; assay: X-ray crystal structure, […] Å; format: binding; settings: closed conformation; nucleotide site of equatorial domain; Mg2+; 3 mM AMPPNP, pH 7.5
compound,measurement,setting,value
"Group III chaperonin from Carboxydothermus hydrogenoformans (Ch-CPN), wild type (from UniProt Q3AF10 1-521) (natural protein)",stoichiometry N,[1],16
Ch-CPN L439A pivot joint mutant (from UniProt Q3AF10 1-521) (natural protein),stoichiometry N,[2],16
Nc1ncnc2c1ncn2[C@@H]1O[C@H](COP(=O)(O)OP(=O)(O)O)[C@@H](O)[C@H]1O [ADP],"X-ray crystal structure, 4.0 Å",Ch-CPN [3],The crystal structure of the ADP-bound Ch-CPN shows its fully open conformation
Nc1ncnc2c1ncn2[C@@H]1O[C@H](COP(=O)(O)OP(=O)(O)NP(=O)(O)O)[C@@H](O)[C@H]1O [AMPPNP],"X-ray crystal structure, 3.0 Å",Ch-CPN [4],"crystal structure of Ch-CPN in complex with AMPPNP, an ATP analog, revealed its closed conformation"

# From publication PMC5635000, “Structural and mechanistic characterization of an archaeal-like chaperonin from a thermophilic bacterium” (Nature Communications, 2017)
